assay: soluble on expression in E. coli; label from the status in PepcDB or PDB records

| Sequence | soluble on expression in E. coli |
| --- | --- |
| MLSKRIVTALNTAVKVQNAGIATTARGMAGASGSEVSKILEERILGTETGINLEETGKVLSIGDGIARVYGLKNIQAEEMVEFDSGIKGMAMNLDVDNVGVVVFGNDKVIREGDIVKRTGAIVDVPVGDGLLGRVVDALGNPIDGKGPIANARRSRVEVKAPGIIPRLSVREPMVTGVKAVDSLVPIGRGQRELIIGDRQTGKTAIAIDTIINQKRFNDAGDDKKKLFCIYVAVGQKRSTVAQIVKRLTDAGAMDYTIVVSATASDAAPLQFLAPYSGCAMGEHFRDNGKHALIIFDDLSKQAVAYRQMSLLLRRPPGREAYPGDVFYLHSRLLERAAKMNNSLGGGSLTALPVIETQAGDVSAYIPTNVISITDGQIFLETELFYKGVRPAINVGLSVSRVGSAAQTKAMKQVAGSMKLELAQYREVAAFAQFGSDLDASTQQLLNRGVRLTELLKQGQYVPMGIEEQVGVIYAGVKGYLDKVDPSAITKFEKEFLAHLRSSQQALLKTIREEGQISPQTDAQLKDVVVNFLATFKP | not soluble |
| MSLSAFDAFPLGQPAFVTNILDRAAHLRRDDEKLFALEQKPSSRAYVVHRDSLLVKREGENVRALLGIDEALKCGANPGTIFLGLRDGAAVFGMGLSQAAAEKLVGREDYSLTELRGMAMQGAIPPDELSAIAMAKSMVSWHQRHGYCANCGTRSAMKEGGWKRDCPACKAEHFPRTDPVVIMLVASGEKCLLGRQKQFPPGMFSCLAGFVEAAETIEDAVRREILEESGIRCTDVQYYMTQPWPYPSSLMIGCSARALNEDIVVDHSELEDARWFTREEAALMLTRTHPDGLAGPHPFAIAHHLLGRWVHDKSGEGHHHHHH | soluble |
| MGSDKIHHHHHHMNVLEQFYQLGWTLDSAGGASGEAYMAEQDGQKLFLKRNSNPFIAALSAEGIVPKLVWTKRIETGEVVTAQHWKNGRELNEDEMNQTRVAELLHKIHGSRPLLTMLKRMEMEPITPDIMLNKINASLSREVLTHHVVRRALTYLEDHIPNLDARFFTVVHGDVNHNNWLLSDRDELYLVDWEGAMIADPAIDIGMLLYNYVPQNKWSQWFKTYGVEESVNLNKRMKWYTVIQAIGLIQWYEEQKRYRDMNTWLKFLNEVMNSNLFI | not soluble |
| MGGSHHHHHHGMASAQETNQTPGPMLCSTGCGFYGNPRTNGMCSVCYKEHLQRQQNSGRMSPMGTASGSNSPTSDSASVQRADTSLNNCEGAAGSTSEKSRNVPVAALPVTQQMTEMSISREDKITTPKTEVSEPVVTQPSPSVSQPSTSQSEEKAPELPKPKKNRCFMCRKKVGLTGFDCRCGNLFCGLHRYSDKHNCPYDYKAEAAAKIRKENPVVVAEKIQRI | not soluble |
| GMSTAAESEIRQLIERWMQAVRDRDIPGIIAPYADDIVAFDAIQALQFKGKSAYTAHWEMCMGMCTGPMVFELAQLTVHAAGDLALAHWLNRCGPGDDESQCGFMRATVGYRRQGGQWQVIHEHWSAPFDMETQKALFDLKP | soluble |
| MSLAQFYSAKRRTTTRQIITVSVNDLDSFGQGVARHNGKTLFIPGLLPQENAEVTVTEDKKQYARAKVVRRLSDSPERETPRCPHFGVCGGCQQQHASVDLQQRSKSAALARLMKHDVSEVIADVPWGYRRRARLSLNYLPKTQQLQMGFRKAGSSDIVDVKQCPILAPQLEALLPKVRACLGSLQAMRHLGHVELVQATSGTLMILRHTAPLSSADREKLERFSHSEGLDLYLAPDSEILETVSGEMPWYDSNGLRLTFSPRDFIQVNAGVNQKMVARALEWLDVQPEDRVLDLFCGMGNFTLPLATQAASVVGVEGVPALVEKGQQNARLNGLQNVTFYHENLEEDVTKQPWAKNGFDKVLLDPARAGAAGVMQQIIKLEPIRIVYVSCNPATLARDSEALLKAGYTIARLAMLDMFPHTGHLESMVLFSRVKEGHHHHHH | soluble |
| MSLTIFDNYEVWFVIGSQHLYGPETLRQVTQHAEHVVNALNTEAKLPCKLVLKPLGTTPDEITAICRDANYDDRCAGLVVWLHTFSPAKMWINGLTMLNKPLLQFHTQFNAALPWDSIDMDFMNLNQTAHGGREFGFIGARMRQQHAVVTGHWQDKQAHERIGSWMRQAVSKQDTRHLKVCRFGDNMREVAVTDGDKVAAQIKFGFSVNTWAVGDLVQVVNSISDGDVNALVDEYESCYTMTPATQIHGKKRQNVLEAARIELGMKRFLEQGGFHAFTTTFEDLHGLKQLPGLAVQRLMQQGYGFAGEGDWKTAALLRIMKVMSTGLQGGTSFMEDYTYHFEKGNDLVLGSHMLEVCPSIAAEEKPILDVQHLGIGGKDDPARLIFNTQTGPAIVASLIDLGDRYRLLVNCIDTVKTPHSLPKLPVANALWKAQPDLPTASEAWILAGGAHHTVFSHALNLNDMRQFAEMHDIEITVIDNDTRLPAFKDALRWNEVYYGFRREGHHHHHH | soluble |
| MGSSHHHHHHSSGLVPRGSHMTATLGINGFGRIGRLVLRACMERNDITVVAINDPFMDVEYMAYLLKYDSVHGNFNGTVEVSGKDLCINGKVVKVFQAKDPAEIPWGASGAQIVCESTGVFTTEEKASLHLKGGAKKVIISAPPKDNVPMYVMGVNNTEYDPSKFNVISNASSTTNCLAPLAKIINDKFGIVEGLMTTVHSLTANQLTVDGPSKGGKDWRAGRCAGNNIIPASTGAAKAVGKVIPALNGKLTGMAIRVPTPDVSVVDLTCKLAKPASIEEIYQAVKEASNGPMKGIMGYTSDDVVSTDFIGCKYSSILDKNACIALNDSFVKLISWYDNESGYSNRLVDLAVYVASRGL | soluble |
| MLPAYIRIHDQIKKEIDEGLWKIGDRLPSERDLAERFEVSRMTLRQAITLLVEEGILERRVGSGTYIASSRVQEKMRGTTSFTEIVKSQGKTPSTKLISYRRVHPSEQEIKFLDIKPKSYIIRMERVRYADDIPVVFEVTAIPEKIIKSFKKEAITKHFFKTLTDHGFVIGKSQQTISASNANEMTADYLAISRGHAVLTLAQVSYFENGMPFEYVRSQYVGERFEFYLENK | not soluble |
| MGSSHHHHHHSSGLVPRGSMAQGLIEVERKFLPGPGTEERLQELGGTLEYRVTFRDTYYDTPELSLMQADHWLRRREDSGWELKCPGAAGVLGPHTEYKELTAEPTIVAQLCKVLRADGLGAGDVAAVLGPLGLQEVASFVTKRSAWKLVLLGADEEEPQLRVDLDTADFGYAVGEVEALVHEEAEVPTALEKIHRLSSMLGVPAQETAPAKLIVYLQRFRPQDYQRLLEVNSS | soluble |
| MGSDKIHHHHHHMAIETILVINKSGGLIYQRNFTNDEQKLNSNEYLILASTLHGVFAIASQLTPKALQLTQQTNIENTIPYIPYVGMSSNRSDTRNGGGNNNKHTNNEKLGSFKGDDFFKEPFTNWNKSGLRQLCTDQFTMFIYQTLTGLKFVAISSSVMPQRQPTIATTDKPDRPKSTSNLAIQIADNFLRKVYCLYSDYVMKDPSYSMEMPIRSNLFDEKVKKMVENLQ | not soluble |
| MTRLAEILDQMSAVLNDLKTVMDQEQQHLSMGQINGSQLQWITEQKSSLLATLDYLEQLRRKEPNTANSVDISQRWQEITVKTQQLRQMNQHNGWLLEGQIERNQQALEMLKPHQEPTLYGANGQTSTTHRGGKKISILEHHHHHH | soluble |
| MTIHIYNTLTRQKEEFTPLEENKVKMYVCGPTVYNYIHIGNARPPMVFDTVRRYLEYKGYDVQYVSNFTDVDDKLIKAANELGEDVPTIADRFVEAYFEDVTALGCKHATVHPRVTENMDIIIEFIQELVNKGYAYESEGDVYFRTKEFEGYGKLSHQPIADLRHGARIEVGEKKQDPLDFALWKAAKEGEIFWESPWGQGRPGWHIECSAMARKYLGDTIDIHAGGQDLAFPHHENEIAQSEALTGKTFARYWMHNGYININNEKMSKSLGNFILVHDIIKQYDPQLIRFFMLSVHYRHPINFSEELLQSTNNGLERIKTAYGNLKHRMESSTDLTDHNEKWLADLEKFQTAFEEAMNDDFNTANAITELYNVANHANQYLLEEHTSTVVIEAYVKQLETLFDILGLELAQEELLDEEIEALIQKRIEARKNRDFALSDQIRDDLKDRNIILEDTAQGTRWKRG | soluble |
| MGSDKIHHHHHHMLEFTLNFNDYGLKMGILTKLELDYEIDDIEKFLQFFRTMCDRFEPLIIKLGSDSVRYKEAIKELETLAHNTAWAARRLNLEEVTDFCVFCEEMMAQANRFNGPASDEFTDWMLLMSDQFEKYCRSYENDDSVLAVFNPLIVNVPNIISK | not soluble |
| MKEHQKLEHPAQVKTKSFEDAAFEMLSTVSPIKLPRDEIPFDSVREIVLGEIIKSKQRNSRSSANDRRNMDDLLDEAPSSSSSSSHVGESSSSNLDRGTMTDEGCTDIGGAPRPIAARLYGDCTRSSSTSTSSAAGPSCSSDVATVENSKKKPLNYREKRLAEIRAARLKKYRENAEIVEFKCEENCLAEVFTKYYLELLDDEAGPANLYYRVVESLDVYFRVKTWESNCPKLLCEFLCDHILKTCQQLNELHESKNMTDEWRARECQIQVLLTLHVYVVTDERRWLDEAINKLRMIYISVGAERLRTFVEEPVTDIYLELIGDGLATIYDELCINLPADLIQYDTGLFKMTETDDSLVVKRRNGAANRLEQMLNETSADLGVGGVERARRTSTEAAAPQRRSLKRRNIEDVPKELLSPARTTRTSRSDYKHFFVEDTPDEKYQKKTTKVEEIEMNEEEDGEIGAESTSKRKTVTIKEEIDEEVKQTPMAKLRASAKLNGKRCSKRLSDLVKLSEERTQVTKKARENLNKLLEKANTPIRSVTRPIRKSVLFGSAGSMSSSPATTKCARGTSSRTSLLNKFSEMEEKKKSPLAVDTSDGHIIHTPSSASESTTPVLRDRATRRRTTRFNDKNYQPNVLKQEMHDPEFDAMESSMASPSKRTTKNSSTAASASTTPVSKWTDRQLKRQLGLTREDLNRYREAMLTTGERNRNKNVKINWESAQVNRAGRVKGAGASEDGTPIFGIARRNVRTMICHVLLNDTNPDTSFDWNKVKFDDFCGKPRTRQFQSLIQKPEAYMESLKQKYIESRVSSAKRMRSNDGASTSSRPAKRRRSNASSPKKQTASSSASSTKSLKSPVKLEAFDDFGFESEADD | soluble |
| GPGSMAATTEVTPEHVLQLTAPSTGFLCPITANTYNIEFYSFVVRDADTKQVMFEVERDASTYPSVASLAQLPEEQQQAARTIFYRFPPSMLRKQRVSATLLFGVNGDKPVPDLRMIERHYFRNTLVKTFDFKFGFCIPHSRNTWEAVYDVPQFNAEWLEAIEKGTNEMTSDSFYFADGRLIMHNRAFYDYSAPEEEFTK | soluble |
| MSEYPILPSTLIPADPRFGCGPSKVRPAQLNAIVNAGADVIGTSHRQPAVKNIVGSIREGLSSLFSLPDGYEIVLSLGGATAFWDAATFGLIEKKSGHLTFGEFSGKFAKASAQAPWLDEPTIISAEPGDTPTPVAMEGCDVIAWAHNETSTGAMVPVIRPENSDGQLVAIDATSGAGGLPVDMHNADVYYFSPQKCFASDGGLWLAAMSPAALERIEKINASDRFIPAFLNLQTAVDNSRKNQTYNTPAVGTLLMLENQVEWMNANGGLDAMVERTTANSSALYEWAEKRAETTPYVTDPAKRSLVVGTIDFDDSIDAAALAKVLRANGILDVEPYRKLGRNQLRIGMFPAIDTADMDTLTAAIDYVLDNGFAQA | not soluble |
| MVSRLARLARRVGRKLKALTPTPKTPEPPSLPLILDAPVAPGFTTAREVWCAPGFGVVVDAGGQVLGGAARQALGFSPDLAALPGVRVSDGGSRLILPEGAPRLARGAVVAGWGDLRNYAGFVLNTLPALVEASKAGVLADHPLVTPPLTRWQADLLTLAGLASPLINAAPWVVLDEAVLSPPPSPVATHAMLAEVRERVLATPGPASGARPKLYVSRADAMNAVMVDEEGVEIELAALGYTIVRPETSSTRELIGLFREAKVIVAPTGTVLANALFCAADAQIVEIRPPGANGLWVRDLAVLAGATWHGFDAPGEKEAPGAPLDPALPPASAFGWRADAAALLAFLAQRSLEHHHHHH | not soluble |
